# Assay results taken from the supplement of paper PMC9170038.
# Tested on: K4 kissing-loop RNA reporter
# Assay: apparent KD of K4 kissing-loop reporter; higher = weaker reporter binding
# Settings: Eterna round: R107; input ligand: FMN 200 uM
# Procedure: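 RNA-MaP round R107: designed RNA switches with theophylline, tryptophan, arginine or FMN aptamers are transcribed on-chip within common flanks. They are titrated with a labelled K4 kissing-loop RNA reporter in RNA-MaP buffer (100 mM Tris pH 7.5, 80 mM KCl, 4 mM MgCl2), without ligand or with the indicated ligand. Median apparent KD per design.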
# 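Also: bound reporter read as fluorescence of individual clusters on recovered sequencing chips by microscopy, with normalized cluster intensities fitted with a binding model.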
row,Sequence,apparent KD of K4 kissing-loop reporter [nM]
1,CAUACGCAUGGAGGAUAUGAGAUUUCUCAUAUUAUUGUUUAUUCUCAGUGAUGUUGGGAUUUAAACUCAGAAGGCCAUGUGUAUG [Ex FMN B 9],273
2,CCUGAGUGAUGUUUAGGAGGCCCGAUAGAUACCAGAAAUACUGCGUUCCCUUGGCAGCUACGCGGACGGAAGACUACGUUACACG [theeternabot_exclusion_KL_Theo_A_16],390
3,CCAGGUGGAAAAGGAUAUCUAGGAGUGAUGUUCCAUAUGAAAUUAGUUUAUCACCAAACGUCGACCAGAGAAGGUUUCCCAAUUU [theeternabot_exclusion_KL_FMN_B_31],246
4,AAAAUAAUCCAGUGAUGUUGGUAUCCAGAUACCAGCGACGAAAGUCGCCCUUGGCAGCUGUGGACGUACAAAAUAAGUACGUCCU [#OpenEnded 9 #StaticStem #K4Early],502
5,GGCGCUGCCUGUGCCGCCCUCCUCGUCCCUCGAGGACCGGUACGGCCGCCACUCGAGUGAUGUUCGGGUAGCCCUCCCUGCCAGC [BDazzled - #23 Exc. Tryptophan A],585
6,GCUAUGGUAGGAAGGAGCGCUUAUUUAUUAAUAAGAGUGAUGUUCGAUAAUAGAUAUUUAUAGCAGGUAGGUCGCCUACUAUAGC [Arginine B K4 11],290
7,AGUAGUUGGGCGGCCGCCACUAGAACAGCUUUGCCAAAGGCAGAGCUCUAGAGUGAUGUUCUGGCUAGGACCGGGUCCAACUACA [#01 K4 Tryptophan B Same State],930
8,GUGCAGUGAUGUUGCACGAGGAAAGACGAUACCAGCCGUAAAUAAGGCCCUUGGCAGCGUAGGCCAGCAUAAAGUAUGCUAGUCU [Oresbelaen],120
9,AAAUUUAAUAUAUUUAAAUAAAUAUGUGAUACCAGACAUUUAUAAGUCCCUUGGCAGCACAUUGCAGUGAUGUUGCUUAUAAUAA [JR_SSTheophyA_Sub016],72.7
10,GGGUUCUCGUCGGCCGCCACUUCAUGUAUUUAGCAGGCUUCGCUCAGACUCAGUGAUGUUGGGUAAAGGACCGGGACACAUUCAA [theeternabot_exclusion_KL_Trp_B_50],372
11,AAAUUUGCCACUGAUACCAGCCAGUGAUGUUGGCGGUAGUUCUAUGGUACCAUACAUUGUGGCCCUUGGCAGCAGGGCACAGAGC [Raxeisra],115
12,AUUUAAUGUAUAGAUUAUAUACAUUAUUCAGAGGAUAUGCAUUGAAGCAGAAGGCUGGAUGUAGUGAUGUUGCAAUUUUAAUUUA [JR_SSFMNA_Sub007],205
13,CGAUACGGAAAUACGUGUCUCUAUUCAGAAGGAGCGUGUUUGUACACAGGUAGGUCGCUGAAAUUUAAACUAGUGAUGUUAGACU [JR_SSArginiA_Sub003],1160
14,CCAUCGCUAUUCGAUACCAGUCAAUAGGUCUUUGGCCUAUUAAUGGAGUGAUGUUCCUUAGACCCUUGGCAGCGAAUAGUGAUGG [Theophylline B K4 12],258
15,GCAUCCAUGGCAGGAUAUAGCUGAGUGAUGUUCAGGACCCAGUCAGUAUCCAUUACUACUGGACUUCUAGAAGGGCCAUGGAUGC,231
16,AUGUCUGAUAGCAGUGAUGUUGCUUCGGAUACCAGACGCGAUCAUGUCCCUUGGCAGCUGACACGGCACGUGCUAGGUUAGAUGG [whbob_Ex_Theo_A_th74],123
17,UUAGAUGAUUCAUCAAGAUUGAUGAGCAAACGAGGACCGGUACGGCCGCCACUCGAGUGAUGUUCGAGAAGCUCAUCAAUCAAUU [AK4.2 EXC Tryptophan A],166
18,AUUCAUUUCAGAGGAUAUCGAAGGAGAGUGAUGUUCUCCCAUAGCCCAGUGAUGUUGGAAGCUAUUCGAGAAGGCUGUGGGUGGA [Same State FMN B GF 26],178
19,UUAUAUUUUAUAUUUAGUAGAGCUCUCACUCGAGGACCGGUACGGCCGCCACUCGAGUGAUGUUCGAGUGGGAGAGCUCUACAUU [AK3.2 EXC Tryptophan A],118
20,CCAUCGCUAUUCGAUACCAGUCAUUUUUUAUUUUAUUUUUUUUUUGGAGUGAUGUUCCAAGACCCUUGGCAGCGGAUAGUGAUGG [whbob_SS_Theo_B_th79],117
21,GUAUCGCUAGGAGGAUAUUCCAAUCCGCCUAUAAUAGGUGGUACGGAGUGAUGUUCCGAUUUACGGGAAGAAGGCCUAGUGAUAC [FMN B 17],155
22,CCUUCUCUUGAUAGUGAUGUUAUCAAGGACAAGGAUAUCAUCUCAAUGAGAAGGUGUCCUUGAUAACAUGGAGGUCUGAAACAGA [Omei KL FMN A Exc C v3],148
23,AGACUACCACACUGUCAAUAGACAGUGAACUAGGAUAUGCUGAUAAGCAGAAGGAGUGAUGUUCCUGGGUAGUCAAUAAAAUAAU [FmnAX 13 G67],372
24,CACGAUGAAUUCUCUAGGAGUGAUGUUUUUCGAGGACCGGUACGGCCGCCACUCGGACGACGAGCGUGGUAGCGGGCUGAAGACU [iuullin],521
25,ACGUGCACCAGUGAUGUUGGAAAAUAUGAAGGAGCGGGCGAAAGCCCAGGUAGGUCGCAUAAUAGCACGAGCCACGAAAGUGGCA [#SwitchBubble 20 #K4Early],125
26,CGUGGUGCCAAAGGAUAUCAUGCUAACGCGGUUGAGUGAUGUUCGACCCGAGAUAAGAGUGGGCAUUGAGAAGGUUGCGCAGAAG [theeternabot_sameState_KL_FMN_B_10],149
